Laboratory results reported in the Immune Epitope Database (IEDB).

Experiments:
HLA-B*40:01 = assay: IEDB peptide-MHC binding, purified MHC/direct/fluorescence; filed as Kd, often an IC50 or EC50 that approximates it; ≥ and ≤ were set here for values at or beyond the usual limits of such assays
HLA-B*07:02 = assay: as above
HLA-A*68:02 = assay: as above; conditions: source organism: Influenza A virus
HLA-B*15:01 [1] = assay: as above
HLA-B*57:01 [2] = assay: as above; conditions: source organism: Influenza A virus
HLA-A*24:02 = assay: as above
HLA-A*23:01 = assay: as above; conditions: source organism: Influenza A virus
HLA-A*31:01 = assay: as above
HLA-A*24:03 = assay: as above
HLA-B*46:01 = assay: as above
HLA-A*01:01 [3] = assay: as above
HLA-A*26:01 = assay: as above
HLA-A*69:01 = assay: as above
HLA-A*11:01 = assay: as above
HLA-B*27:05 = assay: as above
HLA-B*44:02 = assay: as above
HLA-A*02:01 = assay: as above
HLA-B*58:01 = assay: as above
HLA-B*08:01 = assay: as above
HLA-A*03:01 = assay: as above
HLA-B*15:17 = assay: IEDB peptide-MHC binding, purified MHC/competitive/fluorescence; filed as Kd, often an IC50 or EC50 that approximates it; ≥ and ≤ were set here for values at or beyond the usual limits of such assays
HLA-A*26:02 = assay: as above
HLA-B*18:01 [4] = assay: as above
HLA-C*05:01 = assay: IEDB peptide-MHC binding, purified MHC/direct/fluorescence; filed as Kd, often an IC50 or EC50 that approximates it; ≥ and ≤ were set here for values at or beyond the usual limits of such assays
HLA-B*08:02 = assay: as above
HLA-A*02:12 = assay: IEDB peptide-MHC binding, purified MHC/competitive/fluorescence; filed as Kd, often an IC50 or EC50 that approximates it; ≥ and ≤ were set here for values at or beyond the usual limits of such assays; conditions: source organism: Pasteurella multocida subsp. multocida str. Pm70
HLA-A*02:11 [5] = assay: as above; conditions: source organism: Pasteurella multocida subsp. multocida str. Pm70
HLA-A*02:06 = assay: as above
HLA-A*02:03 = assay: as above
HLA-B*15:09 = assay: IEDB peptide-MHC binding, purified MHC/direct/fluorescence; filed as Kd, often an IC50 or EC50 that approximates it; ≥ and ≤ were set here for values at or beyond the usual limits of such assays
HLA-B*18:01 [6] = assay: as above; conditions: source organism: Influenza A virus (A/Viet Nam/HN/2004(H5N1))
HLA-A*30:01 = assay: IEDB peptide-MHC binding, purified MHC/competitive/fluorescence; filed as Kd, often an IC50 or EC50 that approximates it; ≥ and ≤ were set here for values at or beyond the usual limits of such assays; conditions: source organism: Human immunodeficiency virus 1
HLA-B*15:01 [7] = assay: as above; conditions: source organism: Human immunodeficiency virus 1
HLA-B*57:01 [8] = assay: as above; conditions: source organism: Human immunodeficiency virus 1
HLA-A*01:01 [9] = assay: as above; conditions: source organism: Human immunodeficiency virus 1
HLA-B*39:01 = assay: IEDB peptide-MHC binding, purified MHC/direct/fluorescence; filed as Kd, often an IC50 or EC50 that approximates it; ≥ and ≤ were set here for values at or beyond the usual limits of such assays; conditions: source organism: Bacillus cereus NVH0597-99
HLA-A*02:11 [10] = assay: as above; conditions: source organism: Bacillus cereus NVH0597-99
[11] = source organism: Influenza A virus
[12] = source organism: Influenza A virus (A/Puerto Rico/8/34/Mount Sinai(H1N1))
[13] = source organism: Influenza A virus (A/tiger/Thailand/CU-LV/2004(H5N1))
[14] = source organism: Influenza A virus (A/ruddy turnstone/NJ/60/1985(N9))
[15] = source organism: H9N2 subtype Influenza A virus (A/swine/Korea/S81/2004(H9N2))
[16] = source organism: Pasteurella multocida
[17] = source organism: Pasteurella multocida subsp. multocida str. Pm70
[18] = source organism: Influenza A virus(A/swine/Shandong/fNY/2003(H9N2))
[19] = source organism: Influenza A virus (A/equine/New York/1/1999(H3N8))
[20] = source organism: Influenza A virus (A/Viet Nam/HN/2004(H5N1))
[21] = source organism: Influenza A virus(A/swine/Henan/3/2004(H9N2))
[22] = source organism: Human immunodeficiency virus 1

## DWSGYSGSF
HLA-B*40:01; [11]
  Kd: ≥ 20 µM
HLA-B*07:02; [11]
  Kd: ≥ 20 µM
HLA-A*68:02
  Kd: ≥ 20 µM
HLA-B*15:01 [1]; [12]
  Kd: ≥ 10 µM
HLA-B*57:01 [2]
  Kd: ≥ 20 µM
HLA-A*24:02; [11]
  Kd: 0.0875 µM
HLA-A*23:01
  Kd: 0.175 µM
HLA-A*31:01; [11]
  Kd: ≥ 20 µM
HLA-A*24:03; [13]
  Kd: 0.072 µM
HLA-B*46:01; [11]
  Kd: ≥ 20 µM
HLA-A*01:01 [3]; [11]
  Kd: ≥ 20 µM
HLA-A*26:01; [13]
  Kd: ≥ 20 µM
HLA-A*69:01; [11]
  Kd: ≥ 20 µM
HLA-A*11:01; [11]
  Kd: ≥ 20 µM
HLA-B*27:05; [11]
  Kd: ≥ 20 µM
HLA-B*44:02; [11]
  Kd: ≥ 20 µM
HLA-A*02:01; [11]
  Kd: ≥ 20 µM
HLA-B*58:01; [11]
  Kd: ≥ 20 µM
HLA-B*08:01; [11]
  Kd: ≥ 20 µM
HLA-A*03:01; [11]
  Kd: ≥ 20 µM
HLA-B*15:17; [14]
  Kd: 1.24 µM
HLA-A*26:02; [14]
  Kd: 3.45 µM
HLA-B*18:01 [4]; [14]
  Kd: ≥ 20 µM

## FFNVEIPEF
HLA-C*05:01; source organism: human gammaherpesvirus 4
  Kd: ≥ 20 µM

## KAVRGDLNF
HLA-B*40:01; [15]
  Kd: ≥ 20 µM
HLA-B*07:02; [15]
  Kd: ≥ 20 µM
HLA-B*15:01 [1]; [12]
  Kd: 0.929 µM
HLA-A*24:02; [15]
  Kd: ≥ 20 µM
HLA-A*31:01; [15]
  Kd: ≥ 20 µM
HLA-A*01:01 [3]; [15]
  Kd: ≥ 20 µM
HLA-A*69:01; [15]
  Kd: ≥ 20 µM
HLA-A*11:01; [15]
  Kd: ≥ 20 µM
HLA-B*27:05; [15]
  Kd: ≥ 20 µM
HLA-B*44:02; [15]
  Kd: ≥ 20 µM
HLA-A*02:01; [15]
  Kd: ≥ 20 µM
HLA-B*58:01; [15]
  Kd: 0.093 µM
HLA-B*08:01; [15]
  Kd: ≥ 20 µM
HLA-A*03:01; [15]
  Kd: ≥ 20 µM
HLA-B*08:02; source organism: Influenza A virus(A/swine/Shandong/fZC/2003(H9N2))
  Kd: ≥ 20 µM

## LMAEDLANV
HLA-B*40:01; [16]
  Kd: ≥ 20 µM
HLA-B*07:02; [16]
  Kd: ≥ 20 µM
HLA-B*15:01 [1]; [16]
  Kd: 7.69 µM
HLA-A*31:01; [16]
  Kd: 2.58 µM
HLA-A*24:03; [16]
  Kd: 11.4 µM
HLA-A*01:01 [3]; [16]
  Kd: ≥ 20 µM
HLA-A*26:01; [16]
  Kd: ≥ 20 µM
HLA-A*69:01; [16]
  Kd: 0.0168 µM
HLA-A*11:01; [16]
  Kd: ≥ 20 µM
HLA-B*27:05; [16]
  Kd: ≥ 20 µM
HLA-A*02:01; [16]
  Kd: 0.0472 µM
HLA-B*58:01; [16]
  Kd: ≥ 20 µM
HLA-B*08:01; [16]
  Kd: ≥ 20 µM
HLA-A*03:01; [16]
  Kd: ≥ 20 µM
HLA-A*02:12
  Kd: ≤ 0.0001 µM
HLA-A*02:11 [5]
  Kd: ≤ 0.0001 µM
HLA-A*02:06; [17]
  Kd: ≤ 0.0001 µM
HLA-A*02:03; [17]
  Kd: ≤ 0.0001 µM

## RELVRKTRF
HLA-B*15:09; [18]
  Kd: ≥ 20 µM
HLA-B*40:01; [12]
  Kd: 0.35 µM
HLA-B*07:02; [19]
  Kd: ≥ 20 µM
HLA-B*15:01 [1]; [12]
  Kd: 1.58 µM
HLA-A*24:02; [19]
  Kd: ≥ 20 µM
HLA-A*31:01; [19]
  Kd: ≥ 20 µM
HLA-B*46:01; [19]
  Kd: ≥ 20 µM
HLA-A*01:01 [3]; [19]
  Kd: ≥ 20 µM
HLA-A*26:01; [18]
  Kd: ≥ 20 µM
HLA-A*69:01; [19]
  Kd: ≥ 20 µM
HLA-A*11:01; [19]
  Kd: ≥ 20 µM
HLA-B*27:05; [19]
  Kd: ≥ 20 µM
HLA-A*02:01; [19]
  Kd: ≥ 20 µM
HLA-B*58:01; [19]
  Kd: ≥ 20 µM
HLA-B*08:01; [19]
  Kd: ≥ 20 µM
HLA-A*03:01; [19]
  Kd: ≥ 20 µM

## RRVRDNMTK
HLA-B*40:01; [20]
  Kd: ≥ 20 µM
HLA-B*07:02; [20]
  Kd: ≥ 20 µM
HLA-B*15:01 [1]; [20]
  Kd: ≥ 20 µM
HLA-A*24:02; [20]
  Kd: ≥ 20 µM
HLA-B*18:01 [6]
  Kd: ≥ 20 µM
HLA-B*46:01; [20]
  Kd: ≥ 20 µM
HLA-A*01:01 [3]; [20]
  Kd: ≥ 20 µM
HLA-A*26:01; [21]
  Kd: ≥ 20 µM
HLA-A*69:01; [20]
  Kd: ≥ 20 µM
HLA-A*11:01; [20]
  Kd: ≥ 20 µM
HLA-B*27:05; [12]
  Kd: 0.45 µM
HLA-B*44:02; [20]
  Kd: ≥ 20 µM
HLA-A*02:01; [20]
  Kd: ≥ 20 µM
HLA-B*58:01; [20]
  Kd: ≥ 20 µM
HLA-B*08:01; [20]
  Kd: ≥ 20 µM
HLA-A*03:01; [20]
  Kd: ≥ 20 µM
HLA-B*08:02; [21]
  Kd: ≥ 20 µM

## RSLYNTIATLY
HLA-B*15:17; [22]
  Kd: 0.0007 µM
HLA-A*30:01
  Kd: ≥ 20 µM
HLA-B*15:01 [7]
  Kd: 0.103 µM
HLA-B*57:01 [8]
  Kd: 0.128 µM
HLA-A*02:06; [22]
  Kd: ≥ 20 µM
HLA-A*02:03; [22]
  Kd: 0.722 µM
HLA-A*26:02; [22]
  Kd: 0.921 µM
HLA-B*18:01 [4]; [22]
  Kd: 0.119 µM
HLA-A*01:01 [9]
  Kd: 1.65 µM

## YNDWEGNEL
HLA-B*15:09; source organism: Bacillus cereus NVH0597-99
  Kd: 3.92 µM
HLA-B*39:01
  Kd: 0.598 µM
HLA-A*02:11 [10]
  Kd: ≥ 20 µM
HLA-C*05:01; source organism: Bacillus anthracis str. A0193
  Kd: 0.095 µM
